Assay results reported in patent publication US20200255487A1, “A Cell-Based Seeding Assay for Huntingtin Aggregation” (THE REGENTS OF THE UNIVERSITY OF CALIFORNIA, priority 2017, published 2020).

System: HTT-ΔN17-46Q-GFP
Assay: cell-based HTT seeding assay (ΔN17-1E cells)
Parameters: species or system human
Details: ΔN17-1E (HEK293) cells; substance applied as seed; FIG. 4
Excerpt: Described herein is the development of a cell-based HTT seeding assay. A DNA construct encoding Exon1 of mutant human HTT with a 46 polyQ repeat was designed (FIG. 1C). This mutant HTT was engineered to delete amino acid residues 2-16 and was fused with a green fluorescent protein (GFP) at its C-terminus, named HTT-ΔN17-46Q-GFP hereafter. The HTT-ΔN17-46Q-GFP was then cloned into a pcDNA3 vector and transfected into HEK293 cells. Clones of stably transfected cells expressing HTT-ΔN17-46Q-GFP were selected to generate individual cell lines. Expression of the transgene in the cell lines was characterized to confirm its morphology, expression level and subcellular localization. Line 1E, named ΔN17-1E cells, was selected based on it moderate transgene expression with minimal protein aggregates at the baseline. Based on this cell line, a cell-based HTT seeding assay was developed. Extracellular application of preformed HTT aggregates or biosamples from HD patients as “seeds”, to ΔN17-1E cells could induce intracellular aggregation of HTT-ΔN17-46Q-GFP proteins (FIG. 1 through FIG. 3). […] Currently, the assay has been optimized to be performed in a high-throughput format, making it more capable with large quantity of samples. […]

B1: preformed mHTT-exon1 seeds: preformed mHTT-exon1 seeds derived from in vitro formed mHTT fibrils by sonication (protein)
chain: MATLEKLMKAFESLKSFQQQQQQQQQQQQQQQQQQQQQPPPPPPPPPPPQLPQPPPQAQPLLPQPQPPPPPPPPPPGPAVAEEPLHRP
induction of intracellular HTT-ΔN17-46Q-GFP aggregation by extracellularly applied seeds: forms HTT-ΔN17-46Q-GFP aggregates
